Measurements published in article PMC10475540, “The teleost fish PepT1-type peptide transporters and their relationships with neutral and charged substrates” (Frontiers in Physiology, 2023).
Peptide text beside a SMILES is read from it.

Tests used:
zfPepT1b = molecular target: T1, zfPepT1b (Danio rerio, UniProt Q7SYE4); assay: two-electrode voltage clamp, transport current, Xenopus oocytes; assay type: cell-based; settings: 1 mmol/L, pH 7.6, -60 mV
T1 construct: gene slc15a1b; complete ORF in pSPORT1, cRNA-injected Xenopus laevis oocytes
T1 sequence (Q7SYE4 1-718): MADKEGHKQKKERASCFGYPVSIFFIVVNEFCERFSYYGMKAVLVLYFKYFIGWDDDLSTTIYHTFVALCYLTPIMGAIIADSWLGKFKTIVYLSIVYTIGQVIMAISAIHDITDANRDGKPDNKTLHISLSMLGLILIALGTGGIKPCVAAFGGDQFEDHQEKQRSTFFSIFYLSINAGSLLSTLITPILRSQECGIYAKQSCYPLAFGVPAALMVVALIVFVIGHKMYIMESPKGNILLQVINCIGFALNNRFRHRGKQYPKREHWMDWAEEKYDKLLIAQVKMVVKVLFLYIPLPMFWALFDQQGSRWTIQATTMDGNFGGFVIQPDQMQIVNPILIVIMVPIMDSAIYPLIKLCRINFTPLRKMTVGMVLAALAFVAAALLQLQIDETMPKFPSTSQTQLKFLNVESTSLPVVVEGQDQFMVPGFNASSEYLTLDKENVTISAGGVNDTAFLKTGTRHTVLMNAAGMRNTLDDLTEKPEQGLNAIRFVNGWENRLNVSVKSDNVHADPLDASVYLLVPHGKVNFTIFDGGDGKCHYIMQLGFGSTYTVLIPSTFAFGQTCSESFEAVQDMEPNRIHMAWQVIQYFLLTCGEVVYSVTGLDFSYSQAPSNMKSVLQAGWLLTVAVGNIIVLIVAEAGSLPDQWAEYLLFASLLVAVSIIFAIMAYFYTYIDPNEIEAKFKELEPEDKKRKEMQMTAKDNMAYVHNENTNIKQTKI

[1] = substrate: NCCCC[C@H](N)C(=O)NCC(=O)O; assay: cells, lysate or membranes; settings: pH 7.6, -140 mV, estimate, saturation not reached up to 30 mmol/L
[2] = substrate: NCCCC[C@H](N)C(=O)NCC(=O)O; assay: two-electrode voltage clamp, transport current, Xenopus oocytes; assay type: cell-based, Salmo salar; settings: pH 7.6, -140 mV, strongly voltage dependent
[3] = substrate: NCC(=O)N[C@@H](CC(=O)O)C(=O)O; assay: as above; assay type: cell-based, Danio rerio; settings: pH 7.6, -60 mV, 18 degC incubation of oocytes, proton-coupled transport, 18.0 °C
From the text: (§1) two-electrode voltage clamp, transport current, Xenopus oocytes on zfPepT1a

[4] = substrate: NCCCC[C@H](N)C(=O)NCC(=O)O; assay: as above; assay type: cell-based, Danio rerio; settings: pH 7.6, -60 mV
From the text: as §1

NCC(=O)N[C@@H](CCC(N)=O)C(=O)O [Gly-Gln] (H-Gly-Gln-OH)
two-electrode voltage clamp, transport current, Xenopus oocytes (zfPepT1b; reference substrate): Gly-Lys and Lys-Gly currents are significantly reduced in amplitude if compared to those generated by Gly-Gln

CSCC[C@H](NC(=O)[C@@H](N)CCCCN)C(=O)O [Lys-Met]
two-electrode voltage clamp, transport current, Xenopus oocytes (zfPepT1b): in zebrafish PepT1b Lys-Met and Met-Lys show comparable currents

B1: asPepT1a (Salmo salar) (protein)
chain: MTDEEVVKKGKSKEVCGYPLSIFFIVVNEFCERFSYYGMRAVLVLYFRYFLRFDDDLATSIYHTFVALCYLTPILGAVVADSWLGKFKTIIYLSIVYAIGQVVMAVSAIHDITDTDRDGTPDNLTLHIVLSMVGLLLIALGTGGIKPCVAAFGGDQFQDHQAKQRSTFFSVFYLCINGGSLLSTIITPILRGQECGIHSQQKCYPLAFGVPAALMVVALVVFIIGSGMYHKTEPQGNIMLDVCKCIGFAVKNRFRHRSSSYPKRTHWMDWAEEKYEKLLIAQIKMVLKVLFLYIPLPMFWTLFDQKGSRWTLQATTMDGNFGSLILQPDQMQTVNPILILTLVPIMDSVVYPLIKKCGLNFTPLRRMTVGMFLAAMAFVAAALVQIQIDKTLPTFPSSSQSQLKLLNMGSIPLTVTLPNNDPFVIEAAKANANYLTFEEESINVSFQSPAISRTISLAKGKRQTLLIPSNLSAPMWEMTDDLMAKPEQGANAIRFVNGMAGAVNVSTFGSIEYSSASNYSLISNGKATFTITNGANTCEYSREFGFGSSYTLLIPSHFAWGLTCSESISGVEDIQPNSFHMGWQIPQYFLITCGEVVFSVTGLEFSYSQAPSNMKAVLQAGWLFTVAIGNFIVLIVAEIAQIEEQWAEFVLFASLLVAVCVIFSIMAYFYTYMDPAEIEAQFTDNGGKEESDKEELQMQKKDVVDHHNEDDEAKQTKM
K0.5 [1]: 6.33 ± 0.78 mmol/L

B2: asPepT1b (Salmo salar) (protein)
chain: MTDIDVKKSKRKVDVCGYPLSIFFIVVNEFCERFSYYGMRAVLVLYFRYFLKWDDDLSTSIYHTFIALCYLTPILGAIVADSWLGKFKTIVYLSIVYTVGQVVMAVSAIHDITDTDRDGTPDNMTFHVAMSMVGLFLIALGTGGIKPCVAAFGGDQFEEHQEKQRSTFFSIFYLSINAGSLLSTVITPILRGQECGIHSQQKCYPLAFGVPAALMVVALIVFIMGSGMYNKTAPKGNIMLEVCKCIGFAVKNRFRHRSKKFPKREHWMDWADEKYDKLLVAQVKMVLKVMFLYIPLPMFWTLFDQQGSRWTLQATTMDGNFGILTVQPDQMQTVNPILILALVPIMDSLVYPLIKKCHLNFTPLKRMTVGMLIAALAFVAAALLQLQIDQTLPKLPQGVAGQVKFLNLNSAPLTLTIDGTIDVSVPAHQVNTGDYLTFDKSVRVVFNKNTSTGTDLILMSQTRRTALVSPTLDMNLVYDLSKKPDDGMNAIRFVNGLGSALNVTLGVGDIAPLAVSNYSLVPQGKAEFTIMNSGGASCLYSIDLGFGSAFTLLIPSTFTIGSPDCWQAIQVVEDIQPNTIHMGWQIPQYFLMTGGEVVFSVTGLEFSYSQAPSNMKSVLQAGWLFTVAVGNIIVLIVAEAAQLPDQWAEYILFASLLVVVCIVFAIMSYFYTYTDPAEIEAEFRQPEHGPERKRDQVEMERKDSDCSKSSKGSDMKKKDSVVEQLNQEVKQSKM
notes: complete ORF in pSPORT1, cRNA-injected Xenopus laevis oocytes
K0.5 [2]: 0.18 ± 0.01 mmol/L

B3: zfPepT1a (Danio rerio) (protein)
chain: MPDSKMDETKKKKKKTAECCGYPISIFFIVVNEFCERFSYYGMRAVLVLYFRYFLLWDDDLATSIYHAFVALCYLTPILGAIIADSWLGKFKTIIYLSIVYAVGQVVMAVSTIHDITDANRDGTPDNFTLHIALSMLGLVLIALGTGGIKPCVAAFGGDQFQEHQSRQLNTFFSVFYLCINAGSLLSTLITPVLRAQECGIHTQQQCYPLAFGVPAALMVVSLVVFIAGSGMYTKTAPEGNIMGSVCKCIWFALNNRFRHRSDIYPKREHWMDWAEEKYDKLLIAQIKMVLKVLFLYIPLPMFWTLFDQKGSRWTLQATTMTGDFGGFVLQPDQMQTVNPILILTLVPIMDRIIFPLIKKCGLNFSPLKRMTVGMLFAATAFIAAALVQMEIDKTLPNFPSSSESQLKVVNMHSESLIVTVPSQEPLLIGSFESSPDYITFDQQDIRLAFNTTPEINKDLSLIKGSRQTLIIPSEPAEMYLKEDIKSKPKEGKNAVRFVNGWTAYLNITNLESSLQPSETSNYTLVSQGMRKFTLTDGIQSCEFSRKFGFGSSYTFLIPSDLFSTDCESIKEIEDMQPNSVHMALQIPQYFLITTGEVMFSVTGLQFSYSQAPKNMKSVLQAGWLCTNAVGNIIVLIVAELGKLPKQWAEYVLFASLLVAVSIIFSIMAYFYTYIDPAEIEAEILKQQETDPDKKKKKETLEMEEKENEQEIKQTKI
notes: as for B2
K0.5 [3]: 5.89 ± 2.14 mmol/L | K0.5 [4]: 18.35 ± 3.51 mmol/L
